Biological target: M2pd (modified M2 containing amino acids from Ala-8p to Ala326) (human) (UniProt P56817)
Assay: cell-based or functional assay

Sequence of M2pd (modified M2 containing amino acids from Ala-8p to Ala326) (human) (P56817 22-501 limits assumed): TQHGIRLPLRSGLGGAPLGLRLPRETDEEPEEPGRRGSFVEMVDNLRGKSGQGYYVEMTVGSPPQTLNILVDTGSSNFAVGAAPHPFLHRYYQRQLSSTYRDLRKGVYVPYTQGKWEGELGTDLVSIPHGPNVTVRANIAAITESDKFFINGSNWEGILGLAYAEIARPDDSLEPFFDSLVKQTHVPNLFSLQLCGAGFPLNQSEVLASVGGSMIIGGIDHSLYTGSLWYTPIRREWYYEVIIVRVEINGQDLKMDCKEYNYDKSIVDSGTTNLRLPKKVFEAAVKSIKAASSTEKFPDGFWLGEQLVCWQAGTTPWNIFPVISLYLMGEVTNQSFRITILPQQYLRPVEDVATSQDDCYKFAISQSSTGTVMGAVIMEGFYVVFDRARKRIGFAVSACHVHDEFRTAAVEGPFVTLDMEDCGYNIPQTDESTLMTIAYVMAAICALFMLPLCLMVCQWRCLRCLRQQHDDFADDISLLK

IC50 of inhibition of enzyme activity: 300 µM
Substance: Pepstatin A (peptide)

From patent publication US20040220079A1
